Results as given in the supplement of paper PMC9732359.
± gives the uncertainty stated by the source.

Assay: protein stability index of a GFP-peptide fusion (yeast GPS) (PSI 1-4); higher = more stable; sorted into four equal gates, so the index is relative within each strain
In short: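 Plasmids in a pooled yeast library fused tiled 17-residue yeast protein peptides downstream of GFP and also expressed Cherry. Mid-log cultures grown without leucine were sorted into four equal gates by GFP/Cherry fluorescence ratio. Each gate's plasmids were PCR-amplified and Illumina-sequenced, and reads were matched to strains by barcodes. The protein stability index is derived by multiplying each gate's read frequency by its gate number and summing the results.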

Sequence | protein stability index (doa10∆) | protein stability index (pdr5∆) | protein stability index (san1∆) | protein stability index (ubr1∆)
KTYNKLHYCVSCAIHAR [RPS26A] | 1.21 ± 0.055 | 1.33 ± 0.087 | 1.31 ± 0.14 | 1.2 ± 0.12
FHIACSVGNLEVVKSLY [NAS6] | 2.08 ± 0.078 | 2.39 ± 0.068 | 2.45 ± 0.056 | 2.67 ± 0.065
NDLDYDLIADTITNSSS [YML103C/NUP188] | 2.9 ± 0.061 | 3.06 ± 0.067 | 2.99 ± 0.036 | 3.02 ± 0.048
LAGKYIPNLTAKPFQVT [FAS1] | 2.37 ± 0.06 | 2.76 ± 0.053 | 2.29 ± 0.1 | 2.63 ± 0.048
KFSSRHGQKGVCGIIVK [RET1] | 3.56 ± 0.095 | 3.51 ± 0.092 | 3.71 ± 0.051 | 3.14 ± 0.12
NNIFKEFTSKIGFTIKE [SMC1] | 2.34 ± 0.054 | 2.69 ± 0.063 | 2.76 ± 0.1 | 2.7 ± 0.046
LAASEIGISIVGRFSTI [ECM29] | 2.51 ± 0.091 | 2.95 ± 0.078 | 2.88 ± 0.073 | 2.3 ± 0.064
TTKMWPTNCPLRQFKTC [BRR2] | 2.41 ± 0.093 | 2.31 ± 0.095 | 2.01 ± 0.082 | 2.34 ± 0.086
HLMSWSKTGIIAYSDSQ [SIN4] | 1.63 ± 0.11 | 1.59 ± 0.15 | 1.32 ± 0.12 | 2.2 ± 0.2
VSNNVLRRLEILVPDLY [ECM29] | 2.31 ± 0.1 | 1.84 ± 0.083 | 1.56 ± 0.11 | 1.65 ± 0.073
DLLILTRSIKEKWLLNQ [SRB6] | 1.12 ± 0.1 | 1.35 ± 0.19 | 1.32 ± 0.2 | 1.24 ± 0.17
VHDKVLEDMVFPTEIVG [RPS7B] | 2.63 ± 0.13 | 2.83 ± 0.08 | 2.56 ± 0.083 | 3.06 ± 0.054
VVSILEAGDSDILTTLA [RPL30] | 3.12 ± 0.059 | 2.92 ± 0.074 | 3.01 ± 0.068 | 3.03 ± 0.061
ELKNELAKTKENYDAKI [YIL149C/MLP2] | 3.22 ± 0.073 | 3.43 ± 0.071 | 3.15 ± 0.052 | 3.08 ± 0.076
TNKSKRPSITEAMMLKE [MED1] | 2.91 ± 0.12 | 3.03 ± 0.087 | 2.89 ± 0.094 | 3.03 ± 0.084
LNRIINHMLIDSLNQLE [RGR1] | 3.24 ± 0.15 | 2.96 ± 0.23 | 2.89 ± 0.18 | 2.68 ± 0.19
NVLCVNIKSNDFSIRKT [ECM29] | 2.52 ± 0.068 | 2.66 ± 0.099 | 2.58 ± 0.1 | 2.6 ± 0.071
VNADDDDFMHSETREKE [RPB4] | 2.7 ± 0.089 | 2.61 ± 0.06 | 2.35 ± 0.089 | 1.99 ± 0.062
PKAISNFLIKLSELSPG [YCS4] | 2.37 ± 0.08 | 2.51 ± 0.085 | 2.08 ± 0.095 | 2.01 ± 0.056
TTVITVFLEFSLNFIPI [YML103C/NUP188] | 1.42 ± 0.038 | 1.33 ± 0.032 | 1.83 ± 0.064 | 1.58 ± 0.023
DIPGVRFKVVKVSGVSL [RPS23A] | 1.62 ± 0.084 | 1.11 ± 0.1 | 1.25 ± 0.29 | 1.06 ± 0.079
SVIVDSKVTVPPSKHST [ESC2] | 2.75 ± 0.11 | 2.93 ± 0.089 | 2.72 ± 0.092 | 2.81 ± 0.049
TTTATPHANPITHAHSL [PGD1] | 2.84 ± 0.043 | 3.01 ± 0.041 | 2.88 ± 0.035 | 3.003 ± 0.029
MAPFRQDSILIIYPRSQ [ARP9] | 2.41 ± 0.28 | 2.69 ± 0.17 | 2.82 ± 0.083 | 2.58 ± 0.076
DTSKALLNVSVNITKFS [SKI6] | 2.27 ± 0.08 | 2.57 ± 0.068 | 2.72 ± 0.073 | 2.42 ± 0.072
KKNRDKKIFGTGKRLAK [RPS24A] | 3.4 ± 0.05 | 3.23 ± 0.039 | 3.291 ± 0.028 | 3.26 ± 0.033

Sequence | protein stability index (doa10∆) | protein stability index (pdr5∆) | protein stability index (san1∆) | protein stability index (ubr1∆)
KSLDSIPMSKTIKDLVG [FAS2] | 3.26 ± 0.12 | 2.97 ± 0.092 | 2.79 ± 0.13 | 3.16 ± 0.075
KMVKAWNLNQFQIEADF [ASC1] | 2.58 ± 0.046 | 2.67 ± 0.053 | 2.58 ± 0.067 | 2.55 ± 0.04
QLPSKFTCSCNSLTVDG [RPN14] | 2.2 ± 0.06 | 2.39 ± 0.062 | 2.17 ± 0.052 | 2.17 ± 0.036
SDLINKDLVKNNVSFNA [FAS1] | 2.61 ± 0.068 | 2.58 ± 0.074 | 1.62 ± 0.11 | 2.26 ± 0.053
VENWIIDDKGVLMERKD [ITC1] | 1.69 ± 0.099 | 2.98 ± 0.18 | 3.09 ± 0.15 | 2.7 ± 0.1
TFPVGRVHRLLRRGNYA [HTA1] | 2.38 ± 0.13 | 2.86 ± 0.14 | 2.5 ± 0.087 | 2.27 ± 0.12
INGWELTKAQKYLEQVL [RPL17A] | 3.34 ± 0.06 | 3.44 ± 0.053 | 3.4 ± 0.036 | 3.36 ± 0.046
LSDYEVLKFLTDLEKKH [RPC17] | 3.38 ± 0.13 | 3.23 ± 0.12 | 3.08 ± 0.086 | 3.11 ± 0.13
RAPIYHSKFRSSSGNTW [YML031W/NDC1] | 2.43 ± 0.11 | 2.34 ± 0.06 | 3.15 ± 0.084 | 2.59 ± 0.06
SQWNDSSIDKIEDRDFL [SIR3] | 2.99 ± 0.17 | 3.21 ± 0.27 | 3.23 ± 0.28 | 3.32 ± 0.15
ERSLAVKYINFGKTVKD [RPC31] | 3.09 ± 0.088 | 3.18 ± 0.1 | 2.99 ± 0.046 | 2.88 ± 0.058
VRSREDRKNRAPPQRPR [RPS26A] | 3.27 ± 0.26 |  | 2.76 ± 0.12 | 
SLTISLYASDYASYFPY [RPN7] | 1.42 ± 0.036 | 1.64 ± 0.035 | 1.6 ± 0.049 | 1.67 ± 0.028
NTGGESVVKKEDNKYAI [RGR1] | 3.51 ± 0.1 | 3.39 ± 0.1 | 3.33 ± 0.094 | 3.4 ± 0.085
DAAAEKRNGDEVYTLVD [ARP7] | 3.28 ± 0.074 | 3.35 ± 0.063 | 3.42 ± 0.046 | 3.06 ± 0.056
LAVIMDNIGEIDESLFN [YCG1] | 3.08 ± 0.12 | 3.1 ± 0.064 | 3.13 ± 0.059 | 3 ± 0.12
DVNIVNRRLVYSRILKS [YCG1] | 1.36 ± 0.1 | 1.16 ± 0.079 | 1.38 ± 0.17 | 1.21 ± 0.059
ILYGLVDKGAIMKNKDF [YJL039C/NUP192] |  | 2.32 ± 0.2 | 3.06 ± 0.21 | 1.58 ± 0.15
RENVKSKDEPVSKAVES [SIR4] | 3.58 ± 0.15 | 3.73 ± 0.12 | 2.93 ± 0.19 | 3.31 ± 0.18
VEAGMIALRNGQSSVKH [RPT5] | 2.87 ± 0.14 | 2.9 ± 0.16 | 2.79 ± 0.11 | 2.6 ± 0.11
KSIDSKTPEEVEVYAKI [ISW2] | 1.88 ± 0.078 |  | 2.88 ± 0.14 | 3.01 ± 0.12
TRVTRLSLQRANVEILA [CSL4] | 1.64 ± 0.042 | 1.78 ± 0.043 | 1.78 ± 0.081 | 2.03 ± 0.033
DHKYVCTFSMEPYHFIS [SRB8] | 2.37 ± 0.061 | 2.03 ± 0.047 | 1.83 ± 0.059 | 2.09 ± 0.043
MSAPQAKILSQAPTELE [RPS7A] | 2.79 ± 0.08 | 2.9 ± 0.068 | 2.41 ± 0.1 | 2.53 ± 0.073
YIEDFLLVIGGNQRKIL [YJR042W/NUP85] | 1.59 ± 0.051 | 1.86 ± 0.05 | 1.62 ± 0.078 | 1.71 ± 0.042
WSTTGDNGELDLSGFNI [MED2] | 3.18 ± 0.09 | 3.19 ± 0.12 | 3.34 ± 0.076 | 2.93 ± 0.097
